Source: article PMC11082178

Target: CRF01_AE Env consensus with redesigned HV loops, version 1 (shortest V1HV, without the 'IGNITD' motif), Env on pseudovirus (HIV-1 CRF01_AE (consensus))

10-1074 (antibody)
neutralisation of Env pseudovirus in TZM-bl cells, IC50: 0.544 µg/mL
